Measured values reported in patent US20090092614A1 (Biogen, published 2009).
Like-named read-outs stand apart in the source and are kept apart here.

How the values were obtained:
[1] = biological target: T1, human INSR(28-956)-His10 (human, UniProt P06213 28-956); assay: ELISA on plate-coated rh-INSR, goat anti-human kappa-HRPO
T1 construct: range 28-956; Bought (R&D Systems); also called rh-INSR (R&D 1544-IR); INSR-His10
Description: (§1) ELISA assays were performed to determine specific binding of the Fab fragment antibodies to soluble IGF-1R over the insulin receptor. […] Color development was stopped by addition of 4NH₂SO₄ and optical density is measured at 450 nm using a Molecular Devices plate reader and binding curves are generated.

[2] = biological target: T2, human IGF-1R(1-902)-His10 (human, UniProt P08069 31-932); assay: ELISA on plate-coated rh-IGF-1R, goat anti-human kappa-HRPO
T2 construct: Bought (R&D Systems); also called hIGF-1R-His10; IGF-1R-His
Description: as §1

[3] = biological target: T3, sIGF-1R(1-903) (human, UniProt P08069 31-933); assay: ITC, 37 °C
T3 construct: also called soluble recombinant human IGF-1R ectodomain
T3 sequence (P08069 31-933): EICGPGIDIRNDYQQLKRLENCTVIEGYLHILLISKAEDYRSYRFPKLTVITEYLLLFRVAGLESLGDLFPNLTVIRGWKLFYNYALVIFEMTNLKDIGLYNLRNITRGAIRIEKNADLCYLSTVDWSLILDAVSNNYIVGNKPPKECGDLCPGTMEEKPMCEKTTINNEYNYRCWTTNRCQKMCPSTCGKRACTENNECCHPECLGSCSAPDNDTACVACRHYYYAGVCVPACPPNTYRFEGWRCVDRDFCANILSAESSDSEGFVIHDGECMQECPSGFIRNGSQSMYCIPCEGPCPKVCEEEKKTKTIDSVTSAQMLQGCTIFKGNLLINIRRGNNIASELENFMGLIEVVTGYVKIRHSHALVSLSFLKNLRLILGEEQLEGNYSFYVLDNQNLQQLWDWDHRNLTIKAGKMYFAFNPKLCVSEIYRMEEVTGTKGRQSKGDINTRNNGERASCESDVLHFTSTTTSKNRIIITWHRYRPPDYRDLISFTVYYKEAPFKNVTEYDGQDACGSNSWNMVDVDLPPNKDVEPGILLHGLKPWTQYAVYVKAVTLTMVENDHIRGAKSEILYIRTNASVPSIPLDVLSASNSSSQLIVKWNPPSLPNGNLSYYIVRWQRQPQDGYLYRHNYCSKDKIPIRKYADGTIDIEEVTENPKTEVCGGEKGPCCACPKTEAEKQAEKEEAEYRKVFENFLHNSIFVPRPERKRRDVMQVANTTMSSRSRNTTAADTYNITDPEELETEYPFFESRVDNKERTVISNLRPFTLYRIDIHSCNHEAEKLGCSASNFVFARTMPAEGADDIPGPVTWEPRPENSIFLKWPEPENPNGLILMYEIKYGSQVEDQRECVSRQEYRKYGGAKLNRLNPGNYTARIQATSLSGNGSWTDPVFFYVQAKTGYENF
Description: (§2) These protein solutions were adjusted to the concentrations listed above by dialyzing in PBS. ITC experiments were performed on an ITC200 microcalorimeter (MicroCal, LLC). […] A four minute equilibration period was used between all injections with an initial delay of 60 seconds. […] The lower limit of the protein concentrations capable of generating sufficient signal by calorimetry to measure a change in heat was ˜2-4 micromolar protein.

[4] = biological target: T4, human IGF-1R(1-903)-Fc (human, UniProt P08069 31-933); assay: ELISA on plate-coated soluble IGF-1R-Fc, goat anti-human kappa-HRP
T4 construct: Made by Biogen Idec; also called hIGF-1R-Fc; IGF-1R-Fc
T4 sequence (P08069 31-933): as above
Description: (§3) The absorbance was measured at 450 nm, background 540 nm for TMB using the Molecular Devices plate reader. Data was analyzed using the SOFTMAX PRO software package version 4.3 LS (Molecular Devices Corp.).

[5] = biological target: T4, human IGF-1R(1-903)-Fc; assay: competition ELISA: biotinylated hIGF-1R-Fc on streptavidin plate, antibody titrated in 320 nM human IGF-1 His (blocked ligand), anti-His-HRP detection
[6] = biological target: T3, sIGF-1R(1-903); assay: ITC, 5 °C
Description: as §2

[7] = biological target: T4, human IGF-1R(1-903)-Fc; assay: competition ELISA: biotinylated hIGF-1R-Fc on streptavidin plate, M14-G11 titrated in 320 nM human IGF-1 His (blocked ligand)
[8] = biological target: T3, sIGF-1R(1-903); assay: ITC, 25 °C
Description: as §2

[9] = biological target: T4, human IGF-1R(1-903)-Fc; assay: competition ELISA: biotinylated hIGF-1R-Fc on streptavidin plate, M14-G11 titrated in 20 nM human IGF-1 His (blocked ligand)
[10] = biological target: T4, human IGF-1R(1-903)-Fc; assay: blocking ELISA, competitor 320 nM IGF-1
[11] = biological target: T4, human IGF-1R(1-903)-Fc; assay: blocking ELISA, competitor 640 nM IGF-2
[12] = biological target: T5, hIGF-1R-Fc mutant SD012 (human, UniProt P08069 31-933); assay: SPR
T5 construct: Positions count without the 30-residue signal peptide; also called E303G; not shown: human IgG1 Fc tag

[13] = biological target: T6, hIGF-1R-Fc mutant SD008 (human, UniProt P08069 31-933); assay: SPR
T6 construct: Positions count without the signal peptide; also called S257F; not shown: human IgG1 Fc tag

[14] = biological target: T4, human IGF-1R(1-903)-Fc; assay: ELISA on plate-coated soluble IGF-1R-Fc, goat anti-human kappa-HRP; remark: listed apart in the source
Description: as §3

[15] = biological target: human IGF-1R (full length, on cells) (human, UniProt P08069 31-740; P08069 741-1367); assay: cell-based or functional assay
Sequence of human IGF-1R (full length, on cells) (P08069 31-740, chain 1 of 2): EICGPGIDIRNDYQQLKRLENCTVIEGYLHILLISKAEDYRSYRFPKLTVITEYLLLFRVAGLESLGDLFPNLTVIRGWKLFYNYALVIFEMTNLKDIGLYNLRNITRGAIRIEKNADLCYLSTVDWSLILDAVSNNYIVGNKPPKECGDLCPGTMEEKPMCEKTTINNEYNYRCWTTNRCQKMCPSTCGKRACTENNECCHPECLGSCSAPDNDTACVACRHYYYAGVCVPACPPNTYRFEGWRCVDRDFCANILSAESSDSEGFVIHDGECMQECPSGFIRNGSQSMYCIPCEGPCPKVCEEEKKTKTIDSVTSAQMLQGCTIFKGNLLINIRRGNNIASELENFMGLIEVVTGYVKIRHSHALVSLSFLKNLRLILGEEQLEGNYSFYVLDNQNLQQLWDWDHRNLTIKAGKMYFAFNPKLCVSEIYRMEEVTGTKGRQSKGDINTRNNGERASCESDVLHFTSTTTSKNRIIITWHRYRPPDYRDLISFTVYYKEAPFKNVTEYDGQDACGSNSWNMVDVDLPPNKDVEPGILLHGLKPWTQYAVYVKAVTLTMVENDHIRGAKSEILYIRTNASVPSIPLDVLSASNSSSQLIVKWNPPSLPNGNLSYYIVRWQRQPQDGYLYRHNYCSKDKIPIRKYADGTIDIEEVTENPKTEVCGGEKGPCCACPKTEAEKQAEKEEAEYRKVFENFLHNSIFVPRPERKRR
Sequence of human IGF-1R (full length, on cells) (P08069 741-1367, chain 2 of 2): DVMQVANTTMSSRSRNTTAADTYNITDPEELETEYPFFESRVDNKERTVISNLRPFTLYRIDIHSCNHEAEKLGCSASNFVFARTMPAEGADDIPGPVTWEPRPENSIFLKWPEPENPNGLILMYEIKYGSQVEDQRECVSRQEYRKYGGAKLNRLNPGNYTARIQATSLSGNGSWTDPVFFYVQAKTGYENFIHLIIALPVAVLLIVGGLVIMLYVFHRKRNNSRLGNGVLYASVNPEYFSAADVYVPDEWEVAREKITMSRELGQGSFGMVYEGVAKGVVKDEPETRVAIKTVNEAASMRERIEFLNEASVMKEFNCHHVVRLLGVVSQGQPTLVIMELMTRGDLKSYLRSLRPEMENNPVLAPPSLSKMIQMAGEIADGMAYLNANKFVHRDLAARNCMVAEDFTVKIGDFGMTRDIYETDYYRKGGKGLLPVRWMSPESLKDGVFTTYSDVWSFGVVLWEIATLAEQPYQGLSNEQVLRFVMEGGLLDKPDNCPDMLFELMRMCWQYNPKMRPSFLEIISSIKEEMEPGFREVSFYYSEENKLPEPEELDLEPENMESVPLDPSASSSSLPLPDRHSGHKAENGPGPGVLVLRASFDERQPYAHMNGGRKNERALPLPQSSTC

[16] = biological target: T3, sIGF-1R(1-903); assay: ITC, 15 °C
Description: as §2

[17] = biological target: T7, hIGF-1R-Fc mutant SD015 (human, UniProt P08069 31-933); assay: SPR, Fab over captured mutant
T7 construct: Positions count without the signal peptide; also called H464E; not shown: human IgG1 Fc tag

[18] = biological target: T1, human INSR(28-956)-His10; assay: ELISA, rh-INSR coated
Description: as §1

[19] = biological target: T8, hIGF-1R-Fc mutant SD108 (human, UniProt P08069 31-933); assay: KD grade of mutant hIGF-1R-Fc; S = binding to antibody was ablated by mutation
T8 construct: build as m36 with the substitution; also called H480E; not shown: C-terminal human IgG1-Fc tag and its junction

[20] = biological target: T9, hIGF-1R-Fc mutant SD102 (human, UniProt P08069 31-933); assay: as above
T9 construct: build as m36 with the substitutions; also called E459A S460A

[21] = biological target: T10, hIGF-1R-Fc mutant SD113 (human, UniProt P08069 31-933); assay: as above
T10 construct: build as m36 with the substitutions; also called E570A I571T

[22] = biological target: T11, hIGF-1R-Fc mutant SD104 (human, UniProt P08069 31-933); assay: as above
T11 construct: build as m36 with the substitution; also called H464A; not shown: C-terminal human IgG1-Fc tag and its junction

[23] = biological target: T12, hIGF-1R-Fc mutant SD109 (human, UniProt P08069 31-933); assay: as above
T12 construct: build as m36 with the substitutions; also called Y482A R483W; not shown: C-terminal human IgG1-Fc tag and its junction

[24] = biological target: T13, hIGF-1R-Fc mutant SD110 (human, UniProt P08069 31-933); assay: as above
T13 construct: build as m36 with the substitution; also called E533H; not shown: C-terminal human IgG1 Fc tag

[25] = biological target: T7, hIGF-1R-Fc mutant SD015; assay: as above
[26] = biological target: T14, hIGF-1R-Fc mutant SD103 (human, UniProt P08069 31-933); assay: as above
T14 construct: build as m36 with the substitutions; also called D461A V462T

T1 sequence (P06213 other isoform, or with tags, fused parts or gaps limits assumed): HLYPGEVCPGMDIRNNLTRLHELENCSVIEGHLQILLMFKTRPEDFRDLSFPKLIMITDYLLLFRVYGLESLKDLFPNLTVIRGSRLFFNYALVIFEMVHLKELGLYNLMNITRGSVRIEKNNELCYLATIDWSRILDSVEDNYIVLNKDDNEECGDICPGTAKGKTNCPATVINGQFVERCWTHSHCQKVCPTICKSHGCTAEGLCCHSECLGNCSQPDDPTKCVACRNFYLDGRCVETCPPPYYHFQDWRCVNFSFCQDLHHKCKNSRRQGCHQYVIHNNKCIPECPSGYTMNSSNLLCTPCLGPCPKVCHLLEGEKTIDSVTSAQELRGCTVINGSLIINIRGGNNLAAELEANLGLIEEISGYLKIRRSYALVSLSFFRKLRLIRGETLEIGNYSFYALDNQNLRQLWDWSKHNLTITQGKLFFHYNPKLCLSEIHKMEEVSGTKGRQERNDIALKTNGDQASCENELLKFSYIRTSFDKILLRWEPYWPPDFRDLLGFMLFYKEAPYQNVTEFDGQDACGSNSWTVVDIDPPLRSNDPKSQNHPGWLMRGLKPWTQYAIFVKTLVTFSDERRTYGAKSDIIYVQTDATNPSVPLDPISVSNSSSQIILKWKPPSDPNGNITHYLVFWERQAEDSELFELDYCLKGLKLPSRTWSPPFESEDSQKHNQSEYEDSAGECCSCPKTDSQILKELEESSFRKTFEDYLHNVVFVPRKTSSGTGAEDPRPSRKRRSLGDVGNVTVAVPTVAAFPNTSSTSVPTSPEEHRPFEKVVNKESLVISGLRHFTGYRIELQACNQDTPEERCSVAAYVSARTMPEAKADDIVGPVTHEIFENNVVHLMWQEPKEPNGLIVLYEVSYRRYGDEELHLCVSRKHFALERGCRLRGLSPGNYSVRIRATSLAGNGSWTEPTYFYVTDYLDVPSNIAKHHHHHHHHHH

B1: M14-B01 Fab (Fab, V domains shown)
VH: EVQLLESGGGLVQPGGSLRLSCAASGFTFSNYHMAWVRQAPGKGLEWVSVISPTGGRTTYADSVKGRFTISRDNSKNTLYLQMNSLRAEDTATYYCARAGYSYGYGYFDYWGQGTLVTVSS
VL: DIQMTQFPATLSVSPGERATLSCRASQSVMRNLAWYQQKPGQPPRLLIYGASKRATGIPARFSGSGSGTAFTLTISNLEPEDFAVYYCHQRSTWPLGTFGPGTKLEAK
notes: Human kappa Fab from a phage library
For B1, the binding result [1] was “no binding” and the “EC50 (read off the curve)” value [2] was roughly 5 nM.

B2: M14-G11.G4.P.agly (antibody, human IgG4 S228P, kappa, V domains shown)
VH: EVQLLESGGGLVQPGGSLRLSCAASGFTFSNYPMYWVRQAPGKGLEWVSRISSSGGRTVYADSVKGRFTISRDNSKNTLYLQMNSLRAEDTAVYYCARDRWSRSAAEYGLGGYWGQGTLVTVSS
VL: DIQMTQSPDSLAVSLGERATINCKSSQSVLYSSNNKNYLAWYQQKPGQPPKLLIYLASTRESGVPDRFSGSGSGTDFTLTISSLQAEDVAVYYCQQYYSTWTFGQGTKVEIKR
notes: Aglycosylated human IgG4 (S228P, T299A), kappa; also called M14-G11_Ab; Biotin-G11
In the case of B2, the “stoichiometry of binding (N)” value [3] is reported as 0.7, the “ΔH°” value [3] is reported as -39.5 kcal/mol and the “EC50 (read off the curve)” value [4] is reported as roughly 0.05 nM. The “IC50 (read off the curve)” value [5] was roughly 6 nM, the “stoichiometry of binding (N)” value [6] was 0.9 and the “ΔH°” value [6] was -6.7 kcal/mol. The “IC50 (read off the curve)” value [7] was roughly 6 nM, the “stoichiometry of binding (N)” value [8] was 0.91 and the “ΔH°” value [8] was -26.6 kcal/mol. For the same binder, the “IC50 (read off the curve)” value [9] was roughly 2 nM, the “% IGF-1 inhibition upon antibody saturation” value [10] was 1% and the “% IGF-2 inhibition upon antibody saturation” value [11] was 1%.

B3: M14-G11 Fab (Fab, V domains shown)
VH: EVQLLESGGGLVQPGGSLRLSCAASGFTFSNYPMYWVRQAPGKGLEWVSRISSSGGRTVYADSVKGRFTISRDNSKNTLYLQMNSLRAEDTAVYYCARDRWSRSAAEYGLGGYWGQGTLVTVSS
VL: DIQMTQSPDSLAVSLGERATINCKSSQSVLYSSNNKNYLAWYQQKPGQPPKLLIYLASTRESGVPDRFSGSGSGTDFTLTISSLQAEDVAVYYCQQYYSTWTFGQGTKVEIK
notes: Human kappa Fab (phage library, or papain digest of the full-length antibody)
In the case of B3, the “fold loss in affinity against wild type” value [12] is reported as roughly 3 fold and the “fold loss in affinity against wild type” value [13] is reported as roughly 3 fold.

B4: M14-G11.G4.P (antibody, human IgG4, V domains shown)
VH: EVQLLESGGGLVQPGGSLRLSCAASGFTFSNYPMYWVRQAPGKGLEWVSRISSSGGRTVYADSVKGRFTISRDNSKNTLYLQMNSLRAEDTAVYYCARDRWSRSAAEYGLGGYWGQGTLVTVSS
VL: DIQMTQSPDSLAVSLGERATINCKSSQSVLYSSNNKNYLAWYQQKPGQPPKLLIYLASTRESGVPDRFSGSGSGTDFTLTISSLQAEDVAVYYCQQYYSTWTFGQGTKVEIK
notes: Full-length human IgG4.P, kappa; also called M14.G11.P; G4 version of M14-G11
In the case of B4, the “EC50 (read off the curve)” value [14] is reported as roughly 0.05 nM.

B5: M12-G04 Fab (Fab, V domains shown)
VH: EVQLLESGGGLVQPGGSLRLSCAASGFTFSKYTMHWVRQAPGKGLEWVSSIVSSGGWTDYADSVKGRFTISRDNSKNTLYLQMNSLRAEDTAVYYCARDRSIAAAGTGWSVSFVDWFDPWGQGTLVTVSS
VL: DIQMTQSPLSLSASVGDRVTITCRASQSINGYLNWYQQKPGKAPNLLIYATSSLQSGVPSRFSGSGSGTDFTLTISSLQPEDFATYYCQQSYSTPPYTFGQGTKLEIK
notes: as for B1
B5: no binding (tested: about 5000 nM (baseline markers overlap)) [1].

B6: M13-C06.G4.P.agly (antibody, human IgG4 S228P, kappa, V domains shown)
VH: EVQLLESGGGLVQPGGSLRLSCAASGFTFSIYRMQWVRQAPGKGLEWVSGISPSGGTTWYADSVKGRFTISRDNSKNTLYLQMNSLRAEDTAVYYCARWSGGSGYAFDIWGQGTMVTVSS
VL: DIQMTQSPLSLSASVGDRVTITCQASRDIRNYLNWYQQKPGKAPKLLIYDASSLQTGVPSRFGGSGSGTDFSFTIGSLQPEDIATYYCQQFDSLPHTFGQGTKLEIKR
notes: Aglycosylated human IgG4 (S228P, T299A, EU numbering), kappa; also called M13-C06_Ab; Eu-C06
B6 was tested, and the “stoichiometry of binding (N)” value [3] was 0.97, the “ΔH°” value [3] was -29.2 kcal/mol and the “stoichiometry of binding (N)” value [6] was 0.89. For the same binder, the “ΔH°” value [6] was -11.3 kcal/mol, the “stoichiometry of binding (N)” value [8] was 0.98 and the “ΔH°” value [8] was -20.1 kcal/mol. For the same binder, the “Inhibition of IGF-1 stimulated phosphorylation of IGF-1R (IC50 nM)” value [15] was less than 0.13 nM, the “Inhibition of IGF-2 stimulated phosphorylation of IGF-1R (IC50 nM)” value [15] was less than 0.63 nM and the “stoichiometry of binding (N)” value [16] was 0.98. For the same binder, the “ΔH°” value [16] was -14.4 kcal/mol, the “% IGF-1 inhibition upon antibody saturation” value [10] was 25% and the “% IGF-2 inhibition upon antibody saturation” value [11] was 16%.

B7: M13-C06 Fab (Fab, V domains shown)
VH: EVQLLESGGGLVQPGGSLRLSCAASGFTFSIYRMQWVRQAPGKGLEWVSGISPSGGTTWYADSVKGRFTISRDNSKNTLYLQMNSLRAEDTAVYYCARWSGGSGYAFDIWGQGTMVTVSS
VL: DIQMTQSPLSLSASVGDRVTITCQASRDIRNYLNWYQQKPGKAPKLLIYDASSLQTGVPSRFGGSGSGTDFSFTIGSLQPEDIATYYCQQFDSLPHTFGQGTKLEIK
notes: as for B1
For B7, the “Biacore Relative RUmax” value [17] was 0.04.

B8: M12-E01 Fab (Fab, V domains shown)
VH: EVQLLESGGGLVQPGGSLRLSCAASGFTFSPYSMLWVRQAPGKGLEWVSSIGSSGGSTRYADSVKGRFTISRDNSKNTLYLQMNSLRAEDTAMYYCARVRGILHYDILIGRNLYYYYMDVWGKGTTVTVSS
VL: QYELTQPPSVSEAPRQRVTISCSGSSSNIGNNAINWYQQLPGKPPKLLIYYDDLLPSGVSDRFSGSKSGTSGSLAISGLQSEDEADYYCAAWDDNLNGVIFGGGTKLTVL
notes: Human lambda Fab from a phage library
B8: no binding (tested: 2 µM) [18].

B9: M14-C03.G4.P.agly (antibody, human IgG4 S228P, kappa, V domains shown)
VH: EVQLLESGGGLVQPGGSLRLSCAASGFTFSKYMMSWVRQAPGKGLEWVSYISPSGGLTWYADSVKGRFTISRDNSKNTLYLQMNSLRAEDTAVYYCARDGARGYGMDVWGQGTTVTVSS
VL: DIQMTQSPATLSLSPGERATLSCRASQSVSSYLAWYQQKPGQAPRLLIYDASNRATGIPARFSGSGSGTDFTLTISSLEPEDFAVYYCQQRSNWPPEVTFGPGTKVDIKR
notes: Aglycosylated human IgG4 (S228P, T299A), kappa; also called M14-C03_Ab
B9: no binding [19]; no binding [20]; no binding [21]. B9: no binding [22]; no binding [23]; no binding [24]. The binding result [25] was “no binding”, the binding result [26] was “no binding” and the “% IGF-1 inhibition upon antibody saturation” value [10] was 19%. For the same binder, the “% IGF-2 inhibition upon antibody saturation” value [11] was 21%.
